In publication doi:10.1101/2024.06.21.600001:

Target: EBOV GP ectodomain, mucin-like domain deleted (EBOV GP[change] ectodomain), Mayinga, residues 33-651, double Strep-tag (Zaire ebolavirus (EBOV), Mayinga) (UniProt Q05320)
Test: cryo-EM structure

Substance: EBOV GP ectodomain, mucin-like domain deleted (EBOV GP[change] ectodomain), Mayinga, residues 33-651, double Strep-tag (from UniProt Q05320 33-651) (domain or fragment)
- stoichiometry N: 3
